This series is described as follows: total protein half-life in vivo (active degradation + dilution); higher = more stable protein.
The mark [1] stands for this setting: E. coli NCM3722 delta-clpP delta-lon delta-hslV, growth: N-lim chemostat, doubling time 6 h.
Where [2] appears, read: E. coli NCM3722 delta-clpP, growth: N-lim chemostat, doubling time 6 h.
The mark [3] stands for this setting: E. coli NCM3722 delta-hslV, growth: N-lim chemostat, doubling time 6 h.
Setting [4] is: E. coli NCM3722 delta-lon, growth: N-lim chemostat, doubling time 6 h.
Where [5] appears, read: E. coli NCM3722 delta-smpB, growth: N-lim chemostat, doubling time 6 h.
The mark [6] stands for this setting: wild type E. coli NCM3722, growth: C-lim chemostat, doubling time 3 h.
Where [7] appears, read: wild type E. coli NCM3722, growth: C-lim chemostat, doubling time 6 h.
Setting [8] is: wild type E. coli NCM3722, growth: C-lim chemostat, doubling time 12 h.
Where [9] appears, read: wild type E. coli NCM3722, growth: N-lim chemostat, doubling time 6 h.
Setting [10] is: wild type E. coli NCM3722, growth: N-lim chemostat, doubling time 12 h.
Where [11] appears, read: wild type E. coli NCM3722, growth: P-lim chemostat, doubling time 6 h.
The mark [12] stands for this setting: wild type E. coli NCM3722, growth: P-lim chemostat, doubling time 12 h.

± gives the standard deviation of the averaged measurements.

For the sequence “MTTNYIFVTGGVVSSLGKGIAAASLAAILEARGLNVTIMKLDPYINVDPGTMSPIQHGEVFVTEDGAETDLDLGHYERFIRTKMSRRNNFTTGRIYSDVLRKERRGDYLGATVQVIPHITNAIKERVLEGGEGHDVVLVEIGGTVGDIESLPFLEAIRQMAVEIGREHTLFMHLTLVPYMAASGEVKTKPTQHSVKELLSIGIQPDILICRSDRAVPANERAKIALFCNVPEKAVISLKDVDSIYKIPGLLKSQGLDDYICKRFSLNCPEANLSEWEQVIFEEANPVSEVTIGMVGKYIELPDAYKSVIEALKHGGLKNRVSVNIKLIDSQDVETRGVEILKGLDAILVPGGFGYRGVEGMITTARFARENNIPYLGICLGMQVALIDYARHVANMENANSTEFVPDCKYPVVALITEWRDENGNVEVRSEKSDLGGTMRLGAQQCQLVDDSLVRQLYNAPTIVERHRHRYEVNNMLLKQIEDAGLRVAGRSGDDQLVEIIEVPNHPWFVACQFHPEFTSTPRDGHPLFAGFVKAASEFQKRQAK [P0A7E5]”, the “total protein half-life in vivo” value turned out to be 6.37 ± 0.47 h under setting [1]; 5.64 ± 0.39 h under setting [2]; 5.16 ± 0.13 h under setting [3]; 5.75 ± 0.15 h under setting [4]; 5.11 ± 0.71 h under setting [5]; 3.06 ± 0.25 h under setting [6]. Besides, the “total protein half-life in vivo” value reads like this: under setting [7], 6.11 ± 0.39 h; under setting [8], 12.3 ± 1.2 h; under setting [9], 5.2 ± 0.22 h; under setting [10], 9.4 ± 0.35 h; under setting [11], 6.161 ± 0.058 h; under setting [12], 13.1 ± 0.8 h.
For “MTMNSFERRNKIIQLVNEQGTVLVQDLAGVFAASEATIRADLRFLEQKGVVTRFHGGAAKIMSGNSETETQEVGFKERFQLASAPKNRIAQAAVKMIHEGMTDPTHVIWTQA”, the “total protein half-life in vivo” value under setting [1] was determined as 5.66 ± 0.27 h; the “total protein half-life in vivo” value under setting [2] turned out to be 5.64 ± 0.21 h; the “total protein half-life in vivo” value under setting [3] was 5.7 ± 0.13 h; the “total protein half-life in vivo” value under setting [4] amounted to 5.59 ± 0.61 h; the “total protein half-life in vivo” value under setting [5] was 6.1 ± 0.52 h; the “total protein half-life in vivo” value under setting [6] was determined as 2.9 ± 0.17 h. Besides, the “total protein half-life in vivo” value was found to be 5.62 ± 0.3 h under setting [7]; 12.4 ± 2.1 h under setting [8]; 5.69 ± 0.26 h under setting [9]; 11.3 ± 1.8 h under setting [10]; 5.95 ± 0.17 h under setting [11]; 11.5 ± 0.23 h under setting [12].
Regarding “MSQPLNADQELVSDVVACQLVIKQILDVLDVIAPVEVREKMSSQLKNIDFTNHPAAADPVTMRAIQKAIALIELKFTPQGESH [P0AD10]”, the “total protein half-life in vivo” value came to 5.83 ± 0.39 h under setting [1]; 5.15 h under setting [3]; 3.91 ± 0.9 h under setting [5]; 3.21 h under setting [6]; 4.53 ± 0.82 h under setting [7]; 8.31 ± 0.17 h under setting [8]. For the same sequence, the “total protein half-life in vivo” value reads like this: under setting [9], 3.32 h; under setting [10], 6.2 h; under setting [11], 4.76 ± 1.4 h; under setting [12], 10.3 ± 0.33 h.
For “MKKTAAIISACMLTFALSACSGSNYVMHTNDGRTIVSDGKPQTDNDTGMISYKDANGNKQQINRTDVKEMVELDQ”, the “total protein half-life in vivo” value amounted to 5.09 ± 0.4 h under setting [1]; 5.11 ± 0.78 h under setting [2]; 5.48 ± 0.12 h under setting [3]; 5.68 ± 1.2 h under setting [5]; 3.35 ± 0.3 h under setting [6]; 5.25 ± 0.68 h under setting [7]. Moreover, the “total protein half-life in vivo” value is, setting by setting: under setting [8], 10.3 ± 0.96 h; under setting [9], 5.312 ± 0.043 h; under setting [10], 11.3 h; under setting [11], 4.83 ± 0.12 h; under setting [12], 11.1 ± 0.28 h.
Regarding “MNNRVHQGHLARKRFGQNFLNDQFVIDSIVSAINPQKGQAMVEIGPGLAALTEPVGERLDQLTVIELDRDLAARLQTHPFLGPKLTIYQQDAMTFNFGELAEKMGQPLRVFGNLPYNISTPLMFHLFSYTDAIADMHFMLQKEVVNRLVAGPNSKAYGRLSVMAQYYCNVIPVLEVPPSAFTPPPKVDSAVVRLVPHATMPHPVKDVRVLSRITTEAFNQRRKTIRNSLGNLFSVEVLTGMGIDPAMRAENISVAQYCQMANYLAENAPLQES”, the “total protein half-life in vivo” value runs as follows: under setting [1], 5.45 ± 0.071 h; under setting [2], 5.39 ± 0.83 h; under setting [3], 5.18 ± 0.36 h; under setting [4], 5.84 ± 0.95 h; under setting [5], 5.39 ± 0.63 h; under setting [6], 2.972 ± 0.017 h. In addition, the “total protein half-life in vivo” value by setting is: under setting [7], 5.41 ± 0.75 h; under setting [8], 12.5 ± 1.5 h; under setting [9], 5.24 ± 0.29 h; under setting [10], 9.91 ± 1.2 h; under setting [11], 5.56 ± 0.3 h; under setting [12], 10.6 ± 0.28 h.
For “MHKFTKALAAIGLAAVMSQSAMAENLKLGFLVKQPEEPWFQTEWKFADKAGKDLGFEVIKIAVPDGEKTLNAIDSLAASGAKGFVICTPDPKLGSAIVAKARGYDMKVIAVDDQFVNAKGKPMDTVPLVMMAATKIGERQGQELYKEMQKRGWDVKESAVMAITANELDTARRRTTGSMDALKAAGFPEKQIYQVPTKSNDIPGAFDAANSMLVQHPEVKHWLIVGMNDSTVLGGVRATEGQGFKAADIIGIGINGVDAVSELSKAQATGFYGSLLPSPDVHGYKSSEMLYNWVAKDVEPPKFTEVTDVVLITRDNFKEELEKKGLGGK”, the “total protein half-life in vivo” value turned out to be 5.11 ± 0.82 h under setting [1]; 5.55 ± 0.61 h under setting [2]; 6.44 ± 0.68 h under setting [3]; 6.58 ± 0.93 h under setting [4]; 6.54 ± 1.9 h under setting [5]; 3.11 ± 0.2 h under setting [6]. Also, the “total protein half-life in vivo” value turned out to be 6.07 ± 0.47 h under setting [7]; 12.2 ± 2.1 h under setting [8]; 5.99 ± 0.45 h under setting [9]; 12.3 ± 3.3 h under setting [10]; 5.91 ± 0.24 h under setting [11]; 13.1 ± 0.49 h under setting [12].
Consider “MMNNKVSFTNSNNPTISLSAVIYFPPKFDETRQYQAIVLSHPGGGVKEQTAGTYAKKLAEKGFVTIAYDASYQGESGGEPRQLENPYIRTEDISAVIDYLTTLSYVDNTRIGAMGICAGAGYTANAAIQDRRIKAIGTVSAVNIGSIFRNGWENNVKSIDALPYVEAGSNARTSDISSGEYAIMPLAPMKESDAPNEELRQAWEYYHTPRAQYPTAPGYATLRSLNQIITYDAYHMAEVYLTQPTQIVAGSQAGSKWMSDDLYDRASSQDKRYHIVEGANHMDLYDGKAYVAEAISVLAPFFEETL”, for which the “total protein half-life in vivo” value by setting is: under setting [1], 6.23 ± 1.9 h; under setting [2], 4.63 ± 0.35 h; under setting [3], 4.23 ± 0.18 h; under setting [5], 4.02 ± 0.44 h; under setting [7], 6.58 ± 0.55 h; under setting [8], 11.2 ± 1.6 h. In addition, the “total protein half-life in vivo” value under setting [9] worked out at 4.088 ± 0.028 h, the “total protein half-life in vivo” value under setting [10] came out at 6.51 ± 0.44 h, the “total protein half-life in vivo” value under setting [11] came to 6.21 ± 0.18 h and the “total protein half-life in vivo” value under setting [12] is 13.7 ± 2.8 h.

(Values after the supplement of paper PMC11246515.)
